Data published in patent publication EP4676971A2 (dated 2026).
Values joined by “and” are separate entries in the source; they are usually repeats but may differ in a detail not shown here. Equal entries are not always repeated.

T1: DR3 receptor on human TF-1 cells (human, UniProt Q93038 25-417)
T1 construct: whole, on cells; also called death receptor 3; TNFRSF25
T1 sequence (looked up): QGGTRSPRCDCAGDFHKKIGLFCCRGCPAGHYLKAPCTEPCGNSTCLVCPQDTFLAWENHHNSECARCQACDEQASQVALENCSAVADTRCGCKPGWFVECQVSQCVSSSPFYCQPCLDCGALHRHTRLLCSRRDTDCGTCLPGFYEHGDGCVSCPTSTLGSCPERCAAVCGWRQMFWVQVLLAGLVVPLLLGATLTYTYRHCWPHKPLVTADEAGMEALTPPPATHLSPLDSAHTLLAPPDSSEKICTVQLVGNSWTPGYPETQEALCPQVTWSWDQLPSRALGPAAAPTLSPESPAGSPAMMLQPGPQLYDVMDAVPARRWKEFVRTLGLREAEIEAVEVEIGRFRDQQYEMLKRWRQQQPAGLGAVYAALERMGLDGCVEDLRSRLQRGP

T2: recombinant cynomolgus monkey TL1A protein (cynomolgus monkey, UniProt G7PRK8 72-251)
T2 construct: also called cynomolgus TL1A
T2 sequence: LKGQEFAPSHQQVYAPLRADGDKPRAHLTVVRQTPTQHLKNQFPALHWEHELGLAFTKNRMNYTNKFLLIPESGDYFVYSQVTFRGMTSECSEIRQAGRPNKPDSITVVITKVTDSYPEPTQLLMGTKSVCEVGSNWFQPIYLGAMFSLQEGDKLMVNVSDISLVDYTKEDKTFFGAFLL

T3: cynomolgus monkey TL1A produced by PBMCs in stimulated whole blood (cynomolgus monkey, UniProt G7PRK8 72-251)
T3 sequence: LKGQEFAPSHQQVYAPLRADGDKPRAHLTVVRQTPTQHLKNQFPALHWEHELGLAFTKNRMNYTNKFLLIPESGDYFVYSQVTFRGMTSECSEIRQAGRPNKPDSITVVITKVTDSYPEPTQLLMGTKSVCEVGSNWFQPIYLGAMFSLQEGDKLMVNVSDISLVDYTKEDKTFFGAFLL

T4: recombinant mouse TL1A protein (mouse, UniProt Q5UBV8 76-252, limits assumed)
T4 construct: also called murine TL1A
T4 sequence (looked up): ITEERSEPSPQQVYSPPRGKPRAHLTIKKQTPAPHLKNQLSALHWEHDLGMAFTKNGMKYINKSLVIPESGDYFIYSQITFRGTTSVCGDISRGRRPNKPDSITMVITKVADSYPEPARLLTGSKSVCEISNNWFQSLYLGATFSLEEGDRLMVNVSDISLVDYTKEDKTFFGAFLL

T5: recombinant rat TL1A protein (rat, UniProt Q8K3Y7 76-252, limits assumed)
T5 sequence (looked up): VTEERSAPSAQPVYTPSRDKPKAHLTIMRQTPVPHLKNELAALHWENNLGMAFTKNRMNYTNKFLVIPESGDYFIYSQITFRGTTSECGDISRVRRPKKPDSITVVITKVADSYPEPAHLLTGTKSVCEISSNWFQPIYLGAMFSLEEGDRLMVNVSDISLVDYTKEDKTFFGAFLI

T6: TNFSF6 (FasL) (UniProt P48023 134-281, limits assumed)
T6 sequence (looked up): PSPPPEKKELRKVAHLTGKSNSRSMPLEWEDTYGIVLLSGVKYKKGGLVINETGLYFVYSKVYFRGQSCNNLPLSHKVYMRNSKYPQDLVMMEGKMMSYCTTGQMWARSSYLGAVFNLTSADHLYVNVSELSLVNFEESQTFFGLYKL

T7: membrane-bound human TL1A on TNFSF15/HEK293 cells (human, UniProt O95150 1-251)
T7 construct: whole, on cells; also called membrane-associated TL1A
T7 sequence (looked up): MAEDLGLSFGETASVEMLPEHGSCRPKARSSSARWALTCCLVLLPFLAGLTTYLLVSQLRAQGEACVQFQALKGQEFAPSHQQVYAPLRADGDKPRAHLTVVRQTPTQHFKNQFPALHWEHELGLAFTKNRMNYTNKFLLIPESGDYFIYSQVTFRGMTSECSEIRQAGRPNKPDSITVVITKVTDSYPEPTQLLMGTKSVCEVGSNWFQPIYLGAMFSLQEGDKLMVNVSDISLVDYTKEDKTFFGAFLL

B1: recombinant human TL1A protein (ligand, UniProt O95150 72-251, looked up)
chain: LKGQEFAPSHQQVYAPLRADGDKPRAHLTVVRQTPTQHFKNQFPALHWEHELGLAFTKNRMNYTNKFLLIPESGDYFIYSQVTFRGMTSECSEIRQAGRPNKPDSITVVITKVTDSYPEPTQLLMGTKSVCEVGSNWFQPIYLGAMFSLQEGDKLMVNVSDISLVDYTKEDKTFFGAFLL
notes: also called tumor necrosis factor-like cytokine 1A; TNFSF15

Key:
[1] = target: T1, DR3 receptor on human TF-1 cells; test: TF-1 cell caspase activation assay
[2] = target: B1; test: surface plasmon resonance (SPR), recombinant TL1A protein
[3] = target: T2, recombinant cynomolgus monkey TL1A …; test: as above
[4] = target: T3, cynomolgus monkey TL1A produced by …; test: cell-based or functional assay
[5] = target: B1; test: cell-based or functional assay
[6] = target: T2, recombinant cynomolgus monkey TL1A …; test: cell-based or functional assay
[7] = target: T4, recombinant mouse TL1A protein; test: ELISA on recombinant TL1A protein
[8] = target: T5, recombinant rat TL1A protein; test: ELISA on recombinant TL1A protein
[9] = target: T2, recombinant cynomolgus monkey TL1A …; test: ELISA, binding to recombinant TL1A protein
[10] = target: TNFSF10 (TRAIL) (UniProt P50591 114-281, limits assumed); test: ELISA
Chain of TNFSF10 (TRAIL) (P50591 114-281 limits assumed): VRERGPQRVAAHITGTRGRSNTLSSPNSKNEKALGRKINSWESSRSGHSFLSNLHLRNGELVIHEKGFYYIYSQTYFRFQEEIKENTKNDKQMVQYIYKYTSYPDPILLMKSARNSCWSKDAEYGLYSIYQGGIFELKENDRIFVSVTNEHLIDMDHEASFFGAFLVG

[11] = target: T6, TNFSF6 (FasL); test: ELISA
[12] = target: TNFSF14 (LIGHT) (UniProt O43557 74-240, limits assumed); test: ELISA
Chain of TNFSF14 (LIGHT) (O43557 74-240 limits assumed): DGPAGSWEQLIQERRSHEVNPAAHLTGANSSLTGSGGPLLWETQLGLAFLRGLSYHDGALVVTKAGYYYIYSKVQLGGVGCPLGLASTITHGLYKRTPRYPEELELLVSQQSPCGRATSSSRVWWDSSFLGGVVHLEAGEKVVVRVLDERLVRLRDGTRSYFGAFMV

[13] = target: T7, membrane-bound human TL1A on …; test: binding to TNFSF15/HEK293 cells that carry human TL1A, dose-dependent

binding result [1] | Kd [2] [pM] | Kd [3] [pM] | inhibition of the IFN-gamma response in monkey whole blood (mean IC50) [4] | inhibition of TL1A-induced caspase activation in TF-1 cells (IC50) [5] [pM] | inhibition of TL1A-induced caspase activation in TF-1 cells (IC50) [6] [pM] | binding result [7] | binding result [8] | IC50 [9] [pM] | binding result [10] | binding result [11] | binding result [12] | EC50 [13] [pM] | Binder
binds |  |  |  |  |  |  |  |  |  |  |  |  | B1
 | 60 | 40 | 1.54 nM and 289 ng/mL | 270 | 590 | no binding | no binding | 470 | no binding | no binding | no binding | 17400 | anti-TL1A antibody A219 (antibody, V domains shown, Humanized monoclonal antibody; Molecular weight 143938 Daltons; The constant region is not tied to A219 in the readable text) VH: QVQLVQSGAEVKKPGASVKVSCKASGFDIQDTYMHWVKQRPGQGLEWMGRIDPASGHTKYDPKFQVRVTITRDTSTSTVYLELSSLRSEDTAVYYCARSGGLPDVWGQGTTVTVSS VL: EIVLTQSPGTLSLSPGERATLSCRASSSVSYMYWYQQKPGQAPRPLIYATSNLASGIPDRFSGSGSGTDFTLTISRLEPEDFAVYYCQQWEGNPRTFGGGTKLEIK
